According to the nanobody polyreactivity screen of Harvey et al. (2022):

Assay: yeast display, Sf9 membrane polyspecificity reagent, FACS + sequencing; frameworks hold sequencing errors
Method in brief: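 A nanobody's polyreactivity label depends on the gate it was sorted from. Yeast display cells were stained with 10% biotinylated, detergent-solubilized Sf9 membrane reagent for 1 hour at 4 °C, enriched on streptavidin microbeads and sorted by FACS. The low and high (top ~1%) gates were set on anti-HA fluorescence for expression and streptavidin fluorescence for reagent binding.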

With “QVQLVESGGGLVQAGGSLRLSCAASGYIFDVYAMGWYRQAPGKERELVAAISSSGGRTYYADSVKGRFTISRDTAKNTVYLQMNSLKPEDTAVYYCAAKTHSRTKVYTADYWGQGTQVTVSS” the “polyreactivity (PSR sort gate)” value was “high polyreactivity”.

In the case of “QVQLVESGGGLVQAGGSLRLSCAASGSTFFRYAMGWYRQAPGKERELVAAITSGGNTYYADSVKGRFTISRDNAKNTVYLQMNSLKPEDSAVYYCAADVYHWIHEYDYWGQGTQVTVSS”, the “polyreactivity (PSR sort gate)” value is reported as “low polyreactivity”.

With “QVQLVESGGGLVQAGGSLRLSCAASGFTKFYNAMGWYRQAPGKERELVAAITARGGGTYYADSVKGRFTFSRDNAKNTVYLLMNSLKPEDTAVYYCAKQPIIYWQSSRFDYWGQGTQVTVSS” the “polyreactivity (PSR sort gate)” value was “low polyreactivity”.

For “QVQIVESGGGLVQAGGSLRLSCADSGSTRIYAMGWYRQAPGKERELVAAISWSGGRTYYADSVKGRFTISRDNAKNTVYLQMNSLKPEDTAVYYCAAKGSGRDYWGQGTQVTVSS”, the “polyreactivity (PSR sort gate)” value was “high polyreactivity”.

With “QVQLVESGGGLVQAGGSLRLSCAASGSTFLVYAMGWYRQAPGKERELVAVITYSTVRTYYADSVKGRFTISRDNAKNTVYLQMNSLKPEDTAVYYCNADKEFAVLGQGMDYWGQGTQVTVSS” the “polyreactivity (PSR sort gate)” value was “low polyreactivity”.

In the case of “QVQLVESGGGLVQAGGSLRLSCSASGSIFYYKAMGWYRQAPGKERELVAAISYRGTSTYYADSVKGRFTISRDNAKNTVSLQMNSLKPEDTAVYYCAAPALYTSRRYYYWGQGNQVTVSS”, the “polyreactivity (PSR sort gate)” value is reported as “high polyreactivity”.

With “QVQLVESGGGLVQAGGSLRLSCAASGRIFQGNAMGWYRQAPGKERELVAAITSSGSSTYYADSVKGRFTISRDNAKNTVYLQMNSLKPEDTAVYYCAARATGPIMYYWGQGTQVTVSS” the “polyreactivity (PSR sort gate)” value was “high polyreactivity”.

For “QVQLVESGGGLVQAGGSLRLSCAASGITFNTYAMGWYRHAPGKERELVAVITWSDGGTYYADSVKGRFTISRDNAKNTVYLQMNSLKPEDTAVYYCAADYDWGYDYWGQGTQVTVSS”, the “polyreactivity (PSR sort gate)” value was “low polyreactivity”.

With “QVQLVESGGGLVQAGGSLRLSCAASGLTLAWYAMGWYRQAPGKERELVAAISWSGDSTYYADSVKGRFTISRDNAKNTVYLQMNSLKPEDTAVYYCATRVYGGYGYWGQGTQVTVSS” the “polyreactivity (PSR sort gate)” value was “high polyreactivity”.

With “QVQLVESGGGLVQAGGSLRLSCAASGLIFTSYAMGWYRQAPGKERELVAAISTGGGRTYYADSVKGRFTISRDNAKNTVYLQMNSLKPEDTAVYYCAADSVTYGYDYWGQGTQVTVSS” the “polyreactivity (PSR sort gate)” value was “high polyreactivity”.

With “QVQLVESGGGLVQAGGSLRLSCAASGLIFSYNAMGWYRQAPGKERELVATISYSGGTTYYADSVKGRFTISRDNAKNTVYLQMNSLKPEDTAVYYCAARTLYSPGRPWKWYNYGRYGYWGQGTQVTVSS” the “polyreactivity (PSR sort gate)” value was “high polyreactivity”.

In the case of “QVQLVESGGGLVQAGGSLRISCAASGRIFARNAMGSYRQAPGKERELVATIRVGGGSTYYADSVTGRFTISRDNAKNTVYLQMNSLKPEDTSVYYCAVRQLYSYPGDRRGYYWGQGTQVTVSS”, the “polyreactivity (PSR sort gate)” value is reported as “low polyreactivity”.

In the case of “QVQLVESGGGLVQAGGSLRLRCAASGRTFKPYVMGWNRQAPGKERELVAAISSRGGSTYYADSVKGRFTISRDNAKNTFYLQMNSLKPEDTAVYYCNAAYWFSNKYGYWGQGTQVTVAS”, the “polyreactivity (PSR sort gate)” value is reported as “high polyreactivity”.

With “QVQLVESGGGLVQAGGSLRLSCAASGIIFRAYAMGWYRQAPGKERELVAAITSRGGSTYYADSVKGRFTISLDNAKNTVYLQKNSLKPEDTAVYYCAADFTIPYWDANFDYWGQGTQVTVSS” the “polyreactivity (PSR sort gate)” value was “low polyreactivity”.

For “QVQLVESGGGLVQAGGSLRLSSAASGRTIDGNAMVWYRQAPGKEREWVATITRGGSTYYADSVKGRFTISRDNAKNTVYLQMNSLKPEDTSVYYCAARYYGRSQHHFDYWGQGTQVTVSS”, the “polyreactivity (PSR sort gate)” value was “high polyreactivity”.

For “QVQLVESGGGLVQSGGSLRLSCAASGFTFPNNAMGWYRLAPGKERELVAAITWSGGSTYADSVKGRFTISRDNAKNTVYLQMNSLKPEETAVYFCNTRGTYLSKTLPSAYDYWGQGTQVTVSS”, the “polyreactivity (PSR sort gate)” value was “low polyreactivity”.

With “QVQLVESGGGLVQAGGSLRLSCAASGRTFHGYAMGWYRQAPGKERELVAAINASGGRTYYADSVKGRFTISRDNAKNTVYLQMNSLKPEDTAVYYCAVYSASFRYGLAYDYWGQGTQVTVSS” the “polyreactivity (PSR sort gate)” value was “high polyreactivity”.

For “QDQLVESGVGLVQAGGSHRLSSAASGSTFRRNTMGWYRQAPGKERELVAAISNGGRTYYADSVKGRFTISRDNAKNTVYLQMNRLKPEDTAVYYCNKVRSPWYDSWGQGTQVTVSS”, the “polyreactivity (PSR sort gate)” value was “high polyreactivity”.

In the case of “QVQLVESGGGLVQAGGSLRLSCAASGGTFVYSAMGWYRQAPGKERELVAAINWSGGSTYYADSVKGRFTISRDNAKNTVYLQMNILKAEDTAVLLLQRSGLRRSGVWFDYWGQGTQVTVSS”, the “polyreactivity (PSR sort gate)” value is reported as “low polyreactivity”.

For “QVQLVESGGGLVQAGGRLRLSCAASGRIYRRNTMGWYRQAPGKERELVAAITSSGGSTYADSVKGRFTISRDNAKNTVYLQMNSLKPEDTAVYYCATYVAYHRGYRTYDHWGQGTQVTVSS”, the “polyreactivity (PSR sort gate)” value was “low polyreactivity”.

In the case of “QVQLVESGGGLVQAGGSLRLSCAASGSIFRSYDMGMYRQAPGKERELVADITRTGGNTYYADSVKGRFTISRDNAKNTVYLQMNSLKPEDTAVYYCAATYILTVSVFSYVWPYDYWGQGTQVTVSS”, the “polyreactivity (PSR sort gate)” value is reported as “high polyreactivity”.

With “QVKLVESGRGFVQAGGSLRISCAASGITFRYNAMGWYRQAPGKERELVAAITFSGGSTYYSDSVKGRFTISRDNAKNTVYLQMNILKPEDTAVYYCAKLGSTSTRGNYDYWGQGTQVTVSS” the “polyreactivity (PSR sort gate)” value was “low polyreactivity”.

With “QVQLVESGGGLVQAGGSLRLSCAASGSTFYRYPMGWYRQAPGKERELVAGITGSGRRTYYADSVKGRFTISRDNAKNTVYFQMNSVKPEDTAVYYCNKRRASWSPAGGTYNYWGQGTQVTVSS” the “polyreactivity (PSR sort gate)” value was “low polyreactivity”.

For “QVQLVESGGGLVQAGGSLRLSCAASGNILRGYAMGWYRQAPGKERELVAAIDTRGGRTNYADSVKGRFTISRDNAKNTVYLQMNSLKPEDTAVYYCNALGYYSFGHEYWGQGTQVTVSS”, the “polyreactivity (PSR sort gate)” value was “low polyreactivity”.

In the case of “QVQLEESGRGLVQAGVSLRLSSAASGNTFVTNTMVWYRQAPGKERELVAAIDSGGDSYYADSVKGRFTISRDNAKNTVYFQMNSLKPEDTAVYYCAAVGDRNYFSNRRYEYWGQGTQVTVSS”, the “polyreactivity (PSR sort gate)” value is reported as “low polyreactivity”.

In the case of “QVQLVESGGGLVQAGGSLRLSCAASGRIFYYYDMGWYRQAPGKERELVAAITYSDSSTYADSVKGRFTISRDNAKNTVYLQMNSLKPEDTAVYYCAADYVYPGVRLEMDYWGQGTQVTVSS”, the “polyreactivity (PSR sort gate)” value is reported as “low polyreactivity”.

For “QVQLVESAAGLVQAGGSLRLSCADSGSTIYRYAMGWYRQAPGKERELVAAISTTGGSTFYADSVKGRFTISRDNAKNTVYLQMNSLKPEDTAVYYCNAYYRGTYDYWGQGTQVTVSS”, the “polyreactivity (PSR sort gate)” value was “high polyreactivity”.

In the case of “QVQLVESGGGLVQAGGSLRLSCAASGSIFYWYAMGWYRQAPGKERELVAGITGRGGSTYYADSVKGRFTISRDNAKNTVYLQMNSLKPEDTAVYYCAARYTRWRYNYKDYDYWGQGTQVTVSS”, the “polyreactivity (PSR sort gate)” value is reported as “high polyreactivity”.

With “QVHLVESGGGLVQAGGSLRLSFAASGSIFYFNAMGWYRQAPGKERELVAAINYSGGSTYYADSVKGRFTISRDNAKNTVYLQRNSLKPEDTAVYYCAAVTYFGWYPYRMEYWGQGTQVTVSS” the “polyreactivity (PSR sort gate)” value was “high polyreactivity”.

For “QVQLVESGGGLVQAGGSLRLSCAASGFTFYANTMGWYRQAPGKERELVAAISKSGGRTYYADSVKGRFTISRDNAKNTVYLQMNSLKPEDTAVYYCAASSGYKRNYWGQGTQVTVSS”, the “polyreactivity (PSR sort gate)” value was “high polyreactivity”.

With “QVQLVESGGGLVQAGGSLRLSCAASGRIIGYNAMGWYRQAPGKERELVASIRYSGGSTYYADSVKGRFTISRDNAMNTVYLQMNSLKPEDTAVYYCATRVTYRRRFDYWGQGTQVTVSS” the “polyreactivity (PSR sort gate)” value was “high polyreactivity”.

With “QVQLVESGGGLVQAGGSLRLSCAASGRTFYYYARGWYRQAPGKERELVAAINTRGVSTYYEDSVKGRFTISRDNAKNTVYLQMNSLKPEDTAVYYCNKGFSYGRDYWGQGTQVTVSS” the “polyreactivity (PSR sort gate)” value was “high polyreactivity”.

With “QVQLVESGGGLVQAGGSLRLSCAPSGRIFGGYTMGGYRQAHGKVRELVASINSGGSTAYADSVKGRFTISRDNAKNTVYLQMNSLKPEDTAVYYCNAYLVYSYSPSHYYGFGYWGQGTQVTVSS” the “polyreactivity (PSR sort gate)” value was “high polyreactivity”.

With “QVQLVESGGGLVQAGGSLRLSCAASGLTCRYNAMGWYRQAPGKERELVAGIRISGGNTRYADAVKGRCTISRDNAKKSVYLQMNSLKPEDTAVYYCSALTGFYNLRPYGYWGQGTQVTVSS” the “polyreactivity (PSR sort gate)” value was “high polyreactivity”.

In the case of “QVQLVESGGGLVQAGGSLRLSCAASGYTFWFYAMGWYRQAPGKEREFVATISRSGGSTYYADSVKGRFTISRDNAKNTVYLQMNSLKPEDTAVYYCNARGPRSHRYDYWGQGTQVTVSS”, the “polyreactivity (PSR sort gate)” value is reported as “high polyreactivity”.

For “QVQLVESGGGLVQAGGSLRLSCAASGITFSVYAMGWYRQAPGKERELVASISSGGTSTYYADSVKGRFTISRDNAKNTVYLQMNSLKPEDTAVYYCAAYSYYTGDQYSYDYWGQGTQVTVSS”, the “polyreactivity (PSR sort gate)” value was “low polyreactivity”.

For “QVQLVESGGGLVQAGGSLRLSCAASGSTFVYYAMGWYRQAPGKEREFVAAISISTGSTYYADSVKGRFTISRDNAKNTVYLQMNSLKPEDTAVYYCAVDWFLGGYDDLDYWGQGTQVTVSS”, the “polyreactivity (PSR sort gate)” value was “low polyreactivity”.

In the case of “QVQLVESGGGIVQAGGSLRLTCAASGRILGSNSIAWYRHAPGKERELVAAITSTGSTDYADSVKGRFTISRDNAKKTVYLQMNSLKPEDTAVYYCAADTSPYQDDYWGQGTQVTVSS”, the “polyreactivity (PSR sort gate)” value is reported as “low polyreactivity”.

In the case of “QVQLVESGGGLVQAGGRLRLSCAASGFTFKLYAMGWYRQAPGKERELVASISRSGGSTFYADSVKGRFTISRDTAKNTGYLQMNSLKPEDTAVYYCATGWYYSPYNYWGQGTQVTVSS”, the “polyreactivity (PSR sort gate)” value is reported as “high polyreactivity”.

In the case of “QVQLVESGGGLVQAGGSLRLSCAASGFTFDSYAMGWYRQAPRKERELVAAITSDGSTYYADSVKGRFTISRDNAKNNVYLQMNSLKAEDTAVYYCAADGISLYATAYDYWGQGTQVTVSS”, the “polyreactivity (PSR sort gate)” value is reported as “low polyreactivity”.

With “QVQLVESGGGLVQAGGSLRLSCAASGLIFHFNAMGWYRQAPGKERELVAAITSIGGSTFYADSVKGRFTISRDNAKNTVYLQMNSLKPEDTAVYYCAAAISYFFPDYDYWGQGTQVTVSS” the “polyreactivity (PSR sort gate)” value was “low polyreactivity”.

With “QVQLQESGGGLVQAGGSLRLSCAASGYISHADEMGWYRQAPGKEHELVASISNGGSTNYADSVKGRFTISRDNAKNTVYLQMNSLKSEDTAVYYCAAWTGQVDIHYYWGLGTQVTVSS” the “polyreactivity (PSR sort gate)” value was “low polyreactivity”.

With “QVQLVESGGGLVQAGGSLRLSCAASGRTFILNAMGWYRQAPGKERELVAAISWSGGSTYYADSVKGRFTISRDTAKNTVYLQMNSLKPEDTAVHYCATVRAWIPSGDYEYWGQGTQVTVSS” the “polyreactivity (PSR sort gate)” value was “low polyreactivity”.
